The results in this text go back to PMC6778029.

For data set [1], the target named is T1, hnRNPG wild-type (Homo sapiens, UniProt P38159 1-391). As to the kind of experiment: limited proteolysis protection.
The target of the next data set is hnRNPG RRMmut (Homo sapiens, UniProt P38159 1-391, K9A;F11A;R49A;F51A;F53A). As to the kind of experiment: limited proteolysis protection.
The target of data set [2] is T1, hnRNPG wild-type. As to the kind of experiment: spin-down.

T1 sequence (P38159 whole entry): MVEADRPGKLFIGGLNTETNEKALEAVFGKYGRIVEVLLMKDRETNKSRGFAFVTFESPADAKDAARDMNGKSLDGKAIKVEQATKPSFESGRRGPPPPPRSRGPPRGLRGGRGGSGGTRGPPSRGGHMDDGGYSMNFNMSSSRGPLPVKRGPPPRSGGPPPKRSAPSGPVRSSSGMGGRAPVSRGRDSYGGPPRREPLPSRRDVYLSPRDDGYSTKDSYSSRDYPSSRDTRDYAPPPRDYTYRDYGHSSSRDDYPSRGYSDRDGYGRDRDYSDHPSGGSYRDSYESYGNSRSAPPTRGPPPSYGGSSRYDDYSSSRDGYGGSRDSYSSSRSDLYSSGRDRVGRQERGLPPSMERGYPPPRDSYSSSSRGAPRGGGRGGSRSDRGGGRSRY
Sequence of hnRNPG RRMmut (P38159 whole entry K9A/F11A/R49A/F51A/F53A): as the sequence (P38159 whole entry) above, with K9A, F11A, R49A, F51A, F53A counted along it

B1: WEc RNA (structured_RNA)
RNA: GGGUACGACGGAUAUCGUGGGGGGGGAAAUUGCUUUCGGUUCCGACUCUG
As to B1, the binding result in the data set with hnRNPG wild-type [1] was “binds”; in the data set with hnRNPG RRMmut it was “no binding”.

B2: SMN2exon7 RNA (ssRNA)
RNA: GGUUUUAGACAAAAUCAAAAAGAAGGAAGGUGCUCACAUUCCUUAAAUUAAGGA
Regarding B2, the figures for the binding result with hnRNPG wild-type [1] and in the data set with hnRNPG RRMmut were “binds” and “no binding”, respectively.

B3: MALAT1 hairpin 2515-A (structured_RNA)
RNA: AAUGUGAAGGACUUUCGUAACGGAAGUAAUUCAA
With B3, the binding result in the data set with hnRNPG RRMmut is “no binding”; in the data set with hnRNPG wild-type [2] it was “binds”.

B4: MALAT1 hairpin 2515-m6A (structured_RNA)
RNA: B3 RNA
modifications: m6A at position 11
For B4, the binding result with hnRNPG RRMmut is “no binding”; with hnRNPG wild-type [2] it was “binds”.
